Experimental findings from patent publication US7291492B2, “Histone deacetylase 9” (The Institute of Cancer Research, priority 2001, dated 2007) are described below.

This data set concerns histone H4 peptide. Put plainly: in-vitro histone deacetylase assay with anti-FLAG immunoprecipitated HDAC, [3H]acetyl-labelled histone H4 peptide. The data set is classed as biochemical. Particulars: FLAG-tagged HDAC from 293T cells, FIG. 5A. As to the method:
A. HDAC9 deacetylates histone H4 peptide. 293T cells were transfected with FLAG-tagged HDAC. Whole cell lysates were produced and the HDACs precipitated with anti-FLAG agarose. The beads were assayed for their ability to deacetylate a [^3H]acetyl-labelled peptide corresponding to the N-Terminus of histone H4. Free acetate was extracted and measured by scintillation counting.
Higher activities of HDAC9 have been detected towards peptide substrates derived from histone H3 than from histone H4 (FIGS. 7A and B).

B1: HDAC9: wild-type histone deacetylase 9, a 1069 amino acid polypeptide, class II histone deacetylase (protein)
chain: MHSMISSVDVKSEVPVGLEPISPLDLRTDLRMMMPVVDPVVREKQLQQELLLIQQQQQIQKQLLIAEFQKQHENLTRQHQAQLQEHIKLQQELLAIKQQQELLEKEQKLEQQRQEQEVERHRREQQLPPLRGKDRGRERAVASTEVKQKLQEFLLSKSATKDTPTNGKNHSVSRHPKLWYTAAHHTSLDQSSPPLSGTSPSYKYTLPGAQDAKDDFPLRKTASEPNLKVRSRLKQKVAERRSSPLLRRKDGNVVTSFKKRMFEVTESSVSSSSPGSGPSSPNNGPTGSVTENETSVLPPTPHAEQMVSQQRILIHEDSMNLLSLYTSPSLPNITLGLPAVPSQLNASNSLKEKQKCETQTLRQGVPLPGQYGGSIPASSSHPHVTLEGKPPNSSHQALLQHLLLKEQMRQQKLLVAGGVPLHPQSPLATKERISPGIRGTHKLPRHRPLNRTQSAPLPQSTLAQLVIQQQHQQFLEKQKQYQQQIHMNKLLSKSIEQLKQPGSHLEEAEEELQGDQAMQEDRAPSSGNSTRSDSSACVDDTLGQVGAVKVKEEPVDSDEDAQIQEMESGEQAAFMQQPFLEPTHTRALSVRQAPLAAVGMDGLEKHRLVSRTHSSPAASVLPHPAMDRPLQPGSATGIAYDPLMLKHQCVCGNSTTHPEHAGRIQSIWSRLQETGLLNKCERIQGRKASLEEIQLVHSEHHSLLYGTNPLDGQKLDPRILLGDDSQKFFSSLPCGGLGVDSDTIWNELRSSGAARMAVGCVIELASKVASGELKNGFAVVRPPGHHAEESTAMGFCFFNSVAITAKYLRDQLNISKILIVDLDVHHGNGTQQAFYADPSILYISLHRYDEGNFFPGSGAPNEVGTGLGEGYNINIAWTGGLDPPMGDVEYLEAFRTIVKPVAKEFDPDMVLVSAGFDALEGHTPPLGGYKVTAKCFGHLTKQLMTLADGRVVLALEGGHDLTAICDASEACVNALLGNELEPLAEDILHQSPNMNAVISLQKIIEIQSKYWKSVRMVAVPRGCALAGAQLQEETETVSALASLTVDVEQPFAQEDSRTAGEPMEEEPAL
modifications: left off: a dimerising Fc or GST
notes: wild-type histone deacetylase 9, a 1069 amino acid polypeptide, class II histone deacetylase
B1: the “histone deacetylase activity relative to HDAC1” value is given as “about 25%”; the “histone deacetylase activity relative to HDACs 4 and 5” value is roughly 50%.
